Results from US20200277385A1 (LABORATOIRE FRANCAIS DU FRACTIONNEMENT ET DES …, published 2020).

B1: chimeric antibody 102E9 (antibody, human IgG1, kappa)
heavy: not shown
light: QIVLTQSPAIMSASPGEKVTITCSASSSVIYIHWFQQKPGTSPKLWIYSTSYLASGVPARFSGSGSGTSYSLTISRMEAEDAATYYCQQRRSYPFTFGGGTKLEIKRTVAAPSVFIFPPSDEQLKSGTASVVCLLNNFYPREAKVQWKVDNALQSGNSQESVTEQDSKDSTYSLSSTLTLSKADYEKHKVYACEVTHQGLSSPVTKSFNRGEC
notes: also called ch.102E9
B2: chimeric antibody 122A2 (antibody, human IgG1, kappa)
heavy: not shown
light: DIQMTQTTSSLSASLGDRVTISCRASQDISNYLNWYQQKPDGTVKLLIYYTSRLHSGVPSRFSGSGSGTDYSLTISNLDQEDIATYFCQQGNTLPWTFGGGTKLEIKRTVAAPSVFIFPPSDEQLKSGTASVVCLLNNFYPREAKVQWKVDNALQSGNSQESVTEQDSKDSTYSLSSTLTLSKADYEKHKVYACEVTHQGLSSPVTKSFNRGEC
notes: also called ch.122A2; ch122A2

Columns and labels:
[1] = biological target: T1, human CD303 antigen expressed on cells (human, UniProt Q8WTT0 1-213); experiment: flow cytometry on CAL-1 cells (experiment with BIIB059)
T1 construct: On Fcγ chain-CD303 Jurkat cells, CAL-1 cells, and CAL-1 cells transfected with a CD303 expression vector; also called BDCA-2; BDCA2
T1 sequence: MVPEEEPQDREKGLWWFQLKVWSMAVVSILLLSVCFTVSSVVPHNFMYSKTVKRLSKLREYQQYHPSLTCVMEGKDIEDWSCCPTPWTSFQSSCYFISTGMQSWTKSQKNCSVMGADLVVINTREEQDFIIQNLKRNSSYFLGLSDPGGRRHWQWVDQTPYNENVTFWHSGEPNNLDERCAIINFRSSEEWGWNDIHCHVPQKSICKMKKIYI
Method: (§1) The CD303-expressing cells and the antibodies are prepared in diluent (PBS+1% FCS). 1·10⁵ cells are incubated at 4° C. for 30 minutes with 100 μL of antibody (anti-CD303 or negative control) at various concentrations (0-40 μg/mL, final concentration).
(§2) After washing with the diluent, the antibodies are visualized by addition of a phycoerythrin (PE)-coupled goat anti-mouse IgG F(ab′)₂ fragment (100 μL diluted to 1:100 in the diluent) for 45 minutes at 4° C. The cells are then washed and analyzed by flow cytometry (FC500, Beckman Coulter).

[2] = biological target: T2, FcγRIIIa (CD16a) (UniProt P08637 17-254, limits assumed); experiment: competition with 3G8-PE for CD16 on NK cells, flow cytometry (second experiment)
T2 construct: whole, on cells; also called Fcγ receptor III
T2 sequence (P08637 17-254 limits assumed): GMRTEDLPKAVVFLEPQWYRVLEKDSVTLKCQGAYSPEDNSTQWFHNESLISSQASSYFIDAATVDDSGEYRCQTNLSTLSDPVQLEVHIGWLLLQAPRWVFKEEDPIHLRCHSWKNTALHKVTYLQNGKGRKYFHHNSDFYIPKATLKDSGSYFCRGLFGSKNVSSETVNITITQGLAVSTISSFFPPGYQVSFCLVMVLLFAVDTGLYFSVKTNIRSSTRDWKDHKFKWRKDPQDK

[3] = biological target: T1, human CD303 antigen expressed on cells; experiment: cell-based or functional assay
[4] = biological target: T1, human CD303 antigen expressed on cells; experiment: flow cytometry on CAL-1 cells
Method: as §1, §2

[5] = biological target: T1, human CD303 antigen expressed on cells; experiment: flow cytometry on Fcγ chain-CD303 Jurkat cells
Method: as §1, §2

[6] = biological target: T1, human CD303 antigen expressed on cells; experiment: cell-based or functional assay; remark: listed apart in the source
[7] = biological target: T2, FcγRIIIa (CD16a); experiment: competition with 3G8-PE for CD16 on NK cells, flow cytometry
[8] = biological target: T1, human CD303 antigen expressed on cells; experiment: flow cytometry on CAL-1 cells transfected with CD303 (about 40,000-50,000 CD303/cell)
Method: as §1, §2

[9] = biological target: T1, human CD303 antigen expressed on cells; experiment: cell-based or functional assay; remark: listed apart in the source

Binder | EC50 [1] [µg/mL] | IC50 [2] [µg/mL] | ADCC EC50, Fcγ chain-CD303 Jurkat target cells with NK cells [3] [µg/mL] | ADCC Emax (% lysis), Fcγ chain-CD303 Jurkat target cells with NK cells [3] [% lysis] | Bmax (MFI) [4] [MFI] | EC50 [4] [µg/mL] | Bmax (MFI) [5] [MFI] | EC50 [5] [µg/mL] | ADCC EC50, CAL-1 target cells [6] [µg/mL] | IC50 [7] [µg/mL] | EC50 [8] [µg/mL] | IC50 for IFN-α secretion from pDCs contained in PBMCs [9] [ng/mL]
B1 | 0.44 | 13 | 0.00342 | 38.9 | 30.5 | 1.81 | 24.9 | 3.87 | 0.0038 | 37 | 0.363 | –
B2 | 0.06 | 13 | 0.000159 | 42.4 | 25.2 | 0.207 | 26.2 | 0.128 | 0.00093 | 40.4 | 0.142 | 0.959
